The text below walks through data of publication PMC2990333.

Test [1] concerns the target Aedes aegypti sterol carrier protein-2-like-2 (SCP-2-L2) (Aedes aegypti). Put plainly: crystal structure; ligand-bound X-ray structure at 1.7-angstrom resolution, with bound fatty acid.
The target of test [2] is 25kD protein (immunoreactive P29 form of Drosophila) (Drosophila melanogaster). Put plainly: not stated; dimerisation of the 25kD protein under in vitro conditions.
Test [3] deals with OBP48 expressed in lepidopteran cells (Anopheles gambiae). Put plainly: co-IP + cross-linking; OBPs expressed in lepidopteran cells, examined for in vitro interactions in the absence of exogenously added ligands; chemical cross-linking.

Broadly, the stoichiometry N is the number of molecules, sites or subunits per partner or assembly. In test [1], “Aedes aegypti sterol carrier protein-2-like-2 (SCP-2-L2) (natural protein)” came in with a stoichiometry N of 2.
For the substance “25kD protein (immunoreactive P29 form of Drosophila) (natural protein)”, the stoichiometry N in test [2] is 2.
With “OBP48 expressed in lepidopteran cells (natural protein)”, the stoichiometry N in test [3] amounted to 2.
